The supplement of paper PMC10567573

B1: C9orf9 (parent)
chain: TKHKCRQLTKASLKPRGCSKPPWR
B2: PTPRD (parent)
chain: PVVSMDLDPQPITDEEEGLIWVVG

Variants of: B1
Experiment: protein stability index of a GFP-peptide fusion (GPS, HEK-293T) (PSI 1-6); higher = more stable
Conditions: c terminus: a fixed tail appended
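Note: lentivirally expressed fusions sorted by FACS into six bins by GFP to DsRed ratio, PSI derived from sequencing read proportions per bin multiplied by bin number.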

Variant | protein stability index
TKHKCRQLTKASLKPRGCSKPPLR | 3.72
TKHKCRQLTKASLKPRGCSKPPIR | 3.56
TKHKCRQLTKASLKPRGCSKPPYR | 3.86
TKHKCRQLTKASLKPRGCSKPPDR | 4.3
TKHKCRQLTKASLKPRGCSKPPQR | 3.46
TKHKCRQLTKASLKPRGCSKPPHR | 4.46
TKHKCRQLTKASLKPRGCSKPPNR | 4.32
TKHKCRQLTKASLKPRGCSKHPWR | 3.41
TKHKCRQLTKASLKPRGCSKSPWR | 2.4
TKHKCRQLTKASLKPRGCSKNPWR | 2.9
TKHKCRQLTKASLKPRGCSKEPWR | 2.79
TKHKCRQLTKASLKPRGCSKKPWR | 2.76
TKHKCRQLTKASLKPRGCSKCPWR | 2.36
TKHKCRQLTKASLKPRGCSKVPWR | 3.09
TKHKCRQLTKASLKPRGCSKDPWR | 2.93
TKHKKRQLTKASLKPRGCSKPPWR | 3.65
TKHKARQLTKASLKPRGCSKPPWR | 3.24
TKHKGRQLTKASLKPRGCSKPPWR | 2.21
TKHKSRQLTKASLKPRGCSKPPWR | 2.87
TKHKYRQLTKASLKPRGCSKPPWR | 2.88
TKHKDRQLTKASLKPRGCSKPPWR | 3.56
TKHKWRQLTKASLKPRGCSKPPWR | 2.17
TKHKHRQLTKASLKPRGCSKPPWR | 2.44
TKHKTRQLTKASLKPRGCSKPPWR | 2.24
TKHKCRQLTLASLKPRGCSKPPWR | 2.21

Variant | protein stability index
TKHKCRQLTPASLKPRGCSKPPWR | 2.71
TKHKCRQLTDASLKPRGCSKPPWR | 1.94
TKHKCRQLTYASLKPRGCSKPPWR | 2.53
TKHKCRQLTHASLKPRGCSKPPWR | 2.11
TKHKCRQLTKAKLKPRGCSKPPWR | 3.81
TKHKCRQLTKATLKPRGCSKPPWR | 2.6
TKHKCRQLTKARLKPRGCSKPPWR | 3.37
TKHKCRQLTKANLKPRGCSKPPWR | 3.19
TKHKCRQLTKAGLKPRGCSKPPWR | 3.76
TKHKCRQLTKALLKPRGCSKPPWR | 2.19
TKHKCRQLTKAYLKPRGCSKPPWR | 2.06
TKHKCRQLTKAWLKPRGCSKPPWR | 2.09
TKHKCRQLTKAALKPRGCSKPPWR | 2.98
TKWKCRQLTKASLKPRGCSKPPWR | 2.42
TKEKCRQLTKASLKPRGCSKPPWR | 2.77
TKHKCRQATKASLKPRGCSKPPWR | 3.21
TKHKCRQNTKASLKPRGCSKPPWR | 3.04
TKHKCRQFTKASLKPRGCSKPPWR | 3.24
TKHKCRQCTKASLKPRGCSKPPWR | 2.89
TKHKCRQWTKASLKPRGCSKPPWR | 2.43
TKHKCRQHTKASLKPRGCSKPPWR | 2.98
TKHKCRQETKASLKPRGCSKPPWR | 3.62
TKHKCRQITKASLKPRGCSKPPWR | 2.37
TKHKCRQRTKASLKPRGCSKPPWR | 3.54
TKHKCRQLTKDSLKPRGCSKPPWR | 2.81

Variant | protein stability index
TKHKCRQLTKMSLKPRGCSKPPWR | 1.94
TKHKCRQLTKVSLKPRGCSKPPWR | 2.57
TKHKCRQLTKNSLKPRGCSKPPWR | 2.95
TKHKCRQLTKISLKPRGCSKPPWR | 2.29
TKHKCRQLTKQSLKPRGCSKPPWR | 2.16
TKHKCRQLTKASLKPRGTSKPPWR | 3.11
TKHKCRQLTKASLKPRGDSKPPWR | 3.06
TKHKCRQLTKASLKPRGSSKPPWR | 1.35
TKHKCRQLTKASLKPRGRSKPPWR | 3.03
TKHKCRQLTKASLKPRGWSKPPWR | 2.06
TKHKCRQLTKASLKPRGQSKPPWR | 3.32
TKHKCRQLTKASLKPRGFSKPPWR | 2.69
TKHKCRQLTKASLKPRGGSKPPWR | 3.76
TKHKCRQLTKASLKPRGMSKPPWR | 2.58
TKHKCTQLTKASLKPRGCSKPPWR | 2.4
TKHKCYQLTKASLKPRGCSKPPWR | 3.72
TKHKCQQLTKASLKPRGCSKPPWR | 3.1
TKHKCGQLTKASLKPRGCSKPPWR | 3.22
TKHKCEQLTKASLKPRGCSKPPWR | 3.17
TKHKCSQLTKASLKPRGCSKPPWR | 2.59
TKHKCRQLTKASLKPRFCSKPPWR | 2.23
TKHKCRQLTKASLKPRQCSKPPWR | 3.6
TKHKCRQLTKASLKPRACSKPPWR | 2.83
TKHKCRQLTKASLKPRHCSKPPWR | 2.76
TKHKCRQLTKASLKPRKCSKPPWR | 3.32

Variant | protein stability index
TKHKCRQLTKASLKPRNCSKPPWR | 2.43
TKHKCRQLSKASLKPRGCSKPPWR | 2.27
TKHKCRQLKKASLKPRGCSKPPWR | 3.57
TKHKCRQLLKASLKPRGCSKPPWR | 2.17
TKHKCRQLGKASLKPRGCSKPPWR | 2.56
TKHKCRQLMKASLKPRGCSKPPWR | 2.48
TKHKCRQLFKASLKPRGCSKPPWR | 4.48
TKHKCRQLTKASLSPRGCSKPPWR | 2.86
TKHKCRQLTKASLRPRGCSKPPWR | 2.52
TKHKCRQLTKASLYPRGCSKPPWR | 1.54
TKHKCRQLTKASLQPRGCSKPPWR | 2.68
TKHKCRQLTKASLNPRGCSKPPWR | 3.41
TKHKCRPLTKASLKPRGCSKPPWR | 3.14
TKHKCRSLTKASLKPRGCSKPPWR | 3.27
TKHKCRLLTKASLKPRGCSKPPWR | 1.29
TKHKCRGLTKASLKPRGCSKPPWR | 2.75
TKHKCRVLTKASLKPRGCSKPPWR | 1.97
TKHKCRFLTKASLKPRGCSKPPWR | 1.63
TKHKCRQLTKASLKPRGCSKPHWR | 2.98
TKHKCRQLTKASLKPRGCSKPAWR | 2.97
TKHKCRQLTKASLKPRGCSKPIWR | 2.02
TKHKCRQLTKASLKPRGCSKPCWR | 1.83
TKHKCRQLTKASLKPRGCSKPDWR | 2.38
TKHKCRQLTKASLKPRGCSKPKWR | 3.03
TKHKCRQLTKASHKPRGCSKPPWR | 2.88

Variant | protein stability index
TKHKCRQLTKASDKPRGCSKPPWR | 3.64
TKHKCRQLTKASYKPRGCSKPPWR | 2.43
TKHKCRQLTKASVKPRGCSKPPWR | 2.33
TKHKCRQLTKASEKPRGCSKPPWR | 2.91
TKHKCRQLTKASIKPRGCSKPPWR | 3.22
TKHKCRQLTKASNKPRGCSKPPWR | 2.92
TKHKCRQLTKASPKPRGCSKPPWR | 3.42
TKHKCRQLTKASRKPRGCSKPPWR | 3.55
YKHKCRQLTKASLKPRGCSKPPWR | 2.09
PKHKCRQLTKASLKPRGCSKPPWR | 3.06
WKHKCRQLTKASLKPRGCSKPPWR | 1.77
RKHKCRQLTKASLKPRGCSKPPWR | 3.56
AKHKCRQLTKASLKPRGCSKPPWR | 3.08
DKHKCRQLTKASLKPRGCSKPPWR | 3.22
IKHKCRQLTKASLKPRGCSKPPWR | 2.59
MKHKCRQLTKASLKPRGCSKPPWR | 2.64
EKHKCRQLTKASLKPRGCSKPPWR | 2.52
KKHKCRQLTKASLKPRGCSKPPWR | 2.62
TKHKCRQLTKASLKWRGCSKPPWR | 2.22
TKHKCRQLTKASLKLRGCSKPPWR | 2.01
TKHKCRQLTKASLKGRGCSKPPWR | 3.41
TKHKCRQLTKASLKMRGCSKPPWR | 2.32
TKHKCRQLTKASLKYRGCSKPPWR | 1.68
TKHKCRQLTKASLKHRGCSKPPWR | 4.16
TKHKCRQLTKASLKTRGCSKPPWR | 2.67

Variant | protein stability index
TKHKCRQLTKASLKKRGCSKPPWR | 3.52
TKHKCRQLTKASLKDRGCSKPPWR | 3.17
TKHKCRQLTKASLKCRGCSKPPWR | 2.5
TKHKCRQLTKASLKPLGCSKPPWR | 2.56
TKHKCRQLTKASLKPPGCSKPPWR | 3.31
TKHKCRQLTKASLKPAGCSKPPWR | 2.72
TKHKCRQLTKASLKPTGCSKPPWR | 2.67
TKHKCRQLTKASLKPYGCSKPPWR | 2.28
TKHKCRQLTKASLKPHGCSKPPWR | 2.6
TTHKCRQLTKASLKPRGCSKPPWR | 2.27
TIHKCRQLTKASLKPRGCSKPPWR | 1.64
TNHKCRQLTKASLKPRGCSKPPWR | 2.78
TGHKCRQLTKASLKPRGCSKPPWR | 3.88
TDHKCRQLTKASLKPRGCSKPPWR | 3.81
TCHKCRQLTKASLKPRGCSKPPWR | 2.68
TKHKCRQLTKASLKPRGCSRPPWR | 3.14
TKHKCRQLTKASLKPRGCSQPPWR | 2.45
TKHKCRQLTKASLKPRGCSLPPWR | 2.3
TKHKCRQLTKASLKPRGCSGPPWR | 2.64
TKHKCRQLTKASLKPRGCSSPPWR | 2.9
TKHKCRQLTKASLKPRGCSEPPWR | 2.41
TKHKCRQLTKASLKPRGCSNPPWR | 2.95
TKHSCRQLTKASLKPRGCSKPPWR | 2.9
TKHCCRQLTKASLKPRGCSKPPWR | 1.91
TKHYCRQLTKASLKPRGCSKPPWR | 1.95

Variant | protein stability index
TKHFCRQLTKASLKPRGCSKPPWR | 1.82
TKHQCRQLTKASLKPRGCSKPPWR | 2.88
TKHVCRQLTKASLKPRGCSKPPWR | 2.25
TKHACRQLTKASLKPRGCSKPPWR | 2.94
TKHKCRQLTKASLKPRGCKKPPWR | 2.37
TKHKCRQLTKASLKPRGCLKPPWR | 3.11
TKHKCRQLTKASLKPRGCRKPPWR | 3.63
TKHKCRQLTKASLKPRGCCKPPWR | 2.36
TKHKCRQLTKASLKPRGCQKPPWR | 2.44
TKHKCRQLTKASLKPRGCIKPPWR | 2.08
TKHKCRQLTKASLKPRGCPKPPWR | 1.92
TKHKCRQLTKASLKPRGCSKPPWI | 1.43
TKHKCRQLTKASLKPRGCSKPPWK | 3.63
TKHKCRQLTKASLKPRGCSKPPWE | 3.22
TKHKCRQLTKASLKPRGCSKPPWL | 1.72
TKHKCRQLTKASLKPRGCSKPPWQ | 2.2
TKHKCRQLTKASLKPRGCSKPPWH | 2.82
TKHKCRQLTKASLKPRGCSKPPWT | 2.73
TKHKCRQLTKASLKPRGCSKPPWW | 2.51
TKHKCRQLTKASLKPRGCSKPPWD | 3.17
TKHKCRQLTKASLKPRGCSKPPWN | 2.79
TKHKCRQLTKASLKPRGCSKPPWG | 2.12

Variants of: B2
Experiment: as above
Conditions: c terminus: a fixed tail appended

Variant | protein stability index
PVVSMWLDPQPITDEEEGLIWVVG | 1.94
PVVSMDLDPQPITDEEYGLIWVVG | 1.38
PVVSMDLDPQPITDEEEGLIYVVG | 4.1
PVVSMDLDPQPITDEEEGLIIVVG | 3.62
PVVSMDLDPQPITDEEEGLIQVVG | 5.18
PVVSMDLDPQPITSEEEGLIWVVG | 4.05
PVVSMDLDPQPITREEEGLIWVVG | 2.31
PVVSMDLDPTPITDEEEGLIWVVG | 3.73
PVVSMDLDPQPINDEEEGLIWVVG | 3.87
PVVSMDLDPQPIPDEEEGLIWVVG | 3.36
PVVSMDTDPQPITDEEEGLIWVVG | 2.63
PVVSMDMDPQPITDEEEGLIWVVG | 3.29
PTVSMDLDPQPITDEEEGLIWVVG | 4.09
PQVSMDLDPQPITDEEEGLIWVVG | 3.94
PKVSMDLDPQPITDEEEGLIWVVG | 2.77
PMVSMDLDPQPITDEEEGLIWVVG | 4.2
